Experimental data reported in patent US20040185507A1.

Experiments:
[1] = molecular target: αvβ3 integrin on human cells (human) (UniProt P06756); assay: 125-I antibody saturation binding on A375S2 cells (n = 6)
[2] = molecular target: αvβ3 integrin on human cells (human) (UniProt P06756); assay: 125-I antibody saturation binding on M21 cells (n = 3)
[3] = molecular target: αvβ3 integrin on human cells (human) (UniProt P06756); assay: 125-I antibody saturation binding on A375S2 cells (n = 3)
[4] = molecular target: αvβ3 integrin on human cells (human) (UniProt P06756); assay: 125-I antibody saturation binding on M21 cells (n = 7)
[5] = molecular target: αvβ3 integrin on human cells (human) (UniProt P06756); assay: cell-based or functional assay
[6] = molecular target: human αVβ3 integrin, purified (human) (UniProt P06756); assay: ELISA saturation binding on alphaVbeta3 coated plate, non-linear regression (n = 6)
[7] = molecular target: human αVβ3 integrin, purified (human) (UniProt P06756); assay: ELISA on αVβ3 coated plates

αvβ3 integrin on human cells (human), sequence (P06756 31-1048, chain 1 of 2): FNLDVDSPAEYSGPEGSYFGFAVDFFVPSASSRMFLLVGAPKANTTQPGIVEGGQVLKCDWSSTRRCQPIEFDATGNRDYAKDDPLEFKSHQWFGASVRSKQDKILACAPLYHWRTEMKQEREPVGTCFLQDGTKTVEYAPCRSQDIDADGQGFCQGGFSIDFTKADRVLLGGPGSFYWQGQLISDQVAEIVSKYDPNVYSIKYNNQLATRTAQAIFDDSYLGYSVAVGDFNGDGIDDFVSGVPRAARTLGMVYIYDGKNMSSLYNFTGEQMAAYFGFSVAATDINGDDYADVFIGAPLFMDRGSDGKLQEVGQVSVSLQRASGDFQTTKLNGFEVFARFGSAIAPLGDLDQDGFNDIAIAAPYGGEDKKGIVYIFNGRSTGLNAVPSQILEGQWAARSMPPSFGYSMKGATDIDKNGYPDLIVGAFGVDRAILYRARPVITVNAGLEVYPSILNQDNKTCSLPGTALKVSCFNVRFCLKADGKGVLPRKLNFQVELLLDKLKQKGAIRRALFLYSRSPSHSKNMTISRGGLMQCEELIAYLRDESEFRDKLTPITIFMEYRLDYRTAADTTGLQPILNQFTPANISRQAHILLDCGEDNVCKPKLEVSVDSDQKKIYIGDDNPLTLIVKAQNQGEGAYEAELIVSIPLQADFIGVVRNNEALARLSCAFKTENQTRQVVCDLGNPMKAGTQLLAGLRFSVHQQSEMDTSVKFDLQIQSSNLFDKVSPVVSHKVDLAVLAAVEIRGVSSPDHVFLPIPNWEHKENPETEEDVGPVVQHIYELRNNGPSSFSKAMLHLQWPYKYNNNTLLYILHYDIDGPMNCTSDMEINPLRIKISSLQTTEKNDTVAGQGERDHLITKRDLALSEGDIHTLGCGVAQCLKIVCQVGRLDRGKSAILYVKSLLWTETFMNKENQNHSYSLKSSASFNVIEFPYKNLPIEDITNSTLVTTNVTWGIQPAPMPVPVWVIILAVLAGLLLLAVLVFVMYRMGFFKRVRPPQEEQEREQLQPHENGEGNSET
αvβ3 integrin on human cells (human), sequence (P05106 27-788, chain 2 of 2, further chain): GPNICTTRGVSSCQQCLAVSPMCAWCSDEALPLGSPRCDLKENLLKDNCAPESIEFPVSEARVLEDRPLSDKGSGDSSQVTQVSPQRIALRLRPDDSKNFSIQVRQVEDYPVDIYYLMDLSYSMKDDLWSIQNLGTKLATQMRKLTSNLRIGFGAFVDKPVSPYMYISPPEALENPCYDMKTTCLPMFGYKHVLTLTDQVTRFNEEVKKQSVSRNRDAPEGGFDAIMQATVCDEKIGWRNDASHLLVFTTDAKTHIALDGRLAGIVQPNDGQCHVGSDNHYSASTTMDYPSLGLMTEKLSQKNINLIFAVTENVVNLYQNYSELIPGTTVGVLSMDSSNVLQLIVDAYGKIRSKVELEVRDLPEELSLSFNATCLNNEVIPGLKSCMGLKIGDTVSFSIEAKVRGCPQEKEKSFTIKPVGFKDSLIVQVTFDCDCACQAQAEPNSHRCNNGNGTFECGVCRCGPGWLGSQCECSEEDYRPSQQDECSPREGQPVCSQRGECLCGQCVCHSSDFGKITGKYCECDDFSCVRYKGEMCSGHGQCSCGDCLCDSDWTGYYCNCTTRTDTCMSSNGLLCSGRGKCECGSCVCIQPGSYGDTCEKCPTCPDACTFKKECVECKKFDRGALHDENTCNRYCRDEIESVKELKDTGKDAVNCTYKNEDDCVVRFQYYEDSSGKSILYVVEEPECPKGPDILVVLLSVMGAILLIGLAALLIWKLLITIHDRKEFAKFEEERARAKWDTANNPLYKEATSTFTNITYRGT
human αVβ3 integrin, purified (human), sequence (P06756 31-1048, form in doubt, chain 1 of 2): as the sequence (P06756 31-1048, chain 1 of 2) above
human αVβ3 integrin, purified (human), sequence (P05106 27-788, form in doubt, chain 2 of 2, further chain): as the sequence (P05106 27-788, chain 2 of 2, further chain) above

Row | Receptors per cell (receptors/cell) [1] | Kd [2] | Kd [3] | Receptors per cell (receptors/cell) [4] | A375S.2 cell adhesion to fibrin, % of no-antibody control (10 µg/ml) [5] | A375S.2 cell adhesion to fibrinogen, % of no-antibody control (10 µg/ml) [5] | A375S.2 cell adhesion to fibronectin, % of no-antibody control (10 µg/ml) [5] | A375S.2 cell adhesion to gelatin, % of no-antibody control (10 µg/ml) [5] | A375S.2 cell adhesion to type I collagen, % of no-antibody control (10 µg/ml) [5] | A375S.2 cell adhesion to vitronectin, % of no-antibody control (10 µg/ml) [5] | HUVEC adhesion to fibrin, % of no-antibody control (10 µg/ml) [5] | HUVEC adhesion to fibrinogen, % of no-antibody control (10 µg/ml) [5] | HUVEC adhesion to fibronectin, % of no-antibody control (10 µg/ml) [5] | HUVEC adhesion to gelatin, % of no-antibody control (10 µg/ml) [5] | HUVEC adhesion to type I collagen, % of no-antibody control (10 µg/ml) [5] | HUVEC adhesion to vitronectin, % of no-antibody control (10 µg/ml) [5] | Kd [6] | EC50 [7] | Binder
1 | 370000 | 10 nM | 22 nM | 660000 | 12.9% | 6.5% | 104% | 6% | 93.1% | 38.1% | 35.8% | 8.7% | 96.3% | 2.5% | 99.6% | 54.9% | 0.25 nM |  | ReoPro (c7E3 Fab) (Fab, INN chains, looked up, V domains shown, Fab 125I label) VH: EVQLQQSGTVLARPGASVKMSCEASGYTFTNYWMHWVKQRPGQGLEWIGAIYPGNSDTSYIQKFKGKAKLTAVTSTTSVYMELSSLTNEDSAVYYCTLYDGYYVFAYWGQGTLVTVSA VL: EIVLTQSPVTLSVTPGDSVSLSCRASRDISNNLHWFQQTSHESPRLLIKYASQSMSGIPSRFSGSGSGTDFTLSINSVETEDFGMYFCQQTNSWPYTFGGGTKLEIK
2 |  |  |  |  |  |  |  |  |  |  |  |  |  |  |  |  |  | 0.07 µg/mL | c7E3 IgG (antibody, INN chains, looked up, V domains shown, IgG) VH: EVQLQQSGTVLARPGASVKMSCEASGYTFTNYWMHWVKQRPGQGLEWIGAIYPGNSDTSYIQKFKGKAKLTAVTSTTSVYMELSSLTNEDSAVYYCTLYDGYYVFAYWGQGTLVTVSA VL: EIVLTQSPVTLSVTPGDSVSLSCRASRDISNNLHWFQQTSHESPRLLIKYASQSMSGIPSRFSGSGSGTDFTLSINSVETEDFGMYFCQQTNSWPYTFGGGTKLEIK
